Here are results for one molecule from patent US20240059757A1 (VIR BIOTECHNOLOGY, published 2024).

The target of experiment [1] is T1, SARS-CoV RBD (Sino Biological) (SARS-CoV, UniProt P59594 306-527). Description: ELISA. (In an ELISA, binding on a coated surface is turned into a signal by an enzyme label.)
The target in experiment [2] is T2, SARS-CoV-2 RBD (residues 331-550 of spike from BetaCoV/Wuhan-Hu-1/2019, accession number MN908947) (SARS-CoV-2 Wuhan-Hu-1, UniProt P0DTC2 331-550). Description: ELISA.
The target of experiment [3] is T1, SARS-CoV RBD (Sino Biological).
The target of experiment [4] is T2, SARS-CoV-2 RBD (residues 331-550 of …).
In experiment [5] the target is T3, SARS-CoV Spike protein (SARS-CoV, UniProt P59594 14-1255). The experiment can be described thus: cell-based or functional assay.
Experiment [6] addresses T4, SARS-CoV-2 Spike protein (SARS-CoV-2 Wuhan-Hu-1, UniProt P0DTC2 14-1273). Description: cell-based or functional assay.
The target of experiment [7] is T3, SARS-CoV Spike protein.
Experiment [8] concerns the target T1, SARS-CoV RBD (Sino Biological). The source holds these as a separate data set.
Experiment [9] has as its target T3, SARS-CoV Spike protein. Description: cell-based or functional assay. This is another data set of the same source.
Experiment [10] has as its target T1, SARS-CoV RBD (Sino Biological). The experiment can be described thus: BLI. (In general: BLI is a label-free optical method that tracks binding on a fibre tip over time.)
Experiment [11] has as its target T2, SARS-CoV-2 RBD (residues 331-550 of …). Description: BLI.
Experiment [12] shares this target. This is another data set of the same source.
Experiment [13] concerns the target T4, SARS-CoV-2 Spike protein. Description: cell-based or functional assay. This is another data set of the same source.
In experiment [14] the target is T4, SARS-CoV-2 Spike protein. Description: cell-based or functional assay. The source holds these as a separate data set.
The target in experiment [15] is T2, SARS-CoV-2 RBD (residues 331-550 of …). This is another data set of the same source.
Experiment [16] has as its target T1, SARS-CoV RBD (Sino Biological). The experiment can be described thus: BLI. This is another data set of the same source.
Experiment [17] deals with T2, SARS-CoV-2 RBD (residues 331-550 of …). Description: BLI. This is another data set of the same source.
The target in experiment [18] is SARS-CoV-2 RBD-mouse Fc (Sino Biological) (SARS-CoV-2, UniProt P0DTC2 331-541).

Like-named read-outs stand apart in the source and are kept apart here.

B1: S2X259 (antibody, V domains shown)
VH: QVQLVQSGAEVKKPGSSVKVSCKASGGIFNTYTISWVRQAPGQGLEWMGRIILMSGMANYAQKIQGRVTITADKSTSTAYMELTSLRSDDTAVYYCARGFNGNYYGWGDDDAFDISGQGTLVTVYS
VL: QTVLTQPPSVSGAPGQRVTISCTGSNSNIGAGYDVHWYQQLPGTAPKLLICGNSNRPSGVPDRFSGSKSGTSASLAITGLQAEDEADYYCQSYDSSLSGPNWVFGGGTKLTVL
With B1, the EC50 – broadly, the concentration needed to bring the measured effect to its halfway point – came to 0.0285 µg/mL in experiment [1]; 0.0343 µg/mL in experiment [2]; 0.00215 µg/mL with SARS-CoV Spike protein [7]; 0.00151 µg/mL in experiment [8]; 0.00352 µg/mL in experiment [15]. Also, the values for the IC50 in [3], in [4] and in experiment [18] were 0.01 µg/mL, 0.00921 µg/mL and 0.0221 µg/mL, respectively. Moreover, the “neutralization IC50” value in the experiment with SARS-CoV Spike protein [5] turned out to be 0.189 µg/mL; with SARS-CoV-2 Spike protein [6], 0.046 µg/mL; with SARS-CoV Spike protein [9], 0.0806 µg/mL; with SARS-CoV-2 Spike protein [13], 0.231 µg/mL; with SARS-CoV-2 Spike protein [14] it was 0.184 µg/mL. Also, the Kd (commonly the equilibrium constant for the complex coming apart) is 0.862 nM in experiment [10], 0.0874 nM in [11], 0.537 nM in [16] and not above 0.001 nM in experiment [17]. The EC50 (read off the curve) (in general, the concentration giving half of the maximal effect) in experiment [12] is approximately 7 µg/mL.
